3 molecules from patent US20110131688A1 (SALK INSTITUTE FOR BIOLOGICAL STUDIES, published 2011) can be followed below.

First the molecules themselves.
B1: EBF2 (EIN3-binding F-box protein 2) (other)
chain: MSGIFRFSGDEDCLLGGSMYLSPGSCPGVYYPARKRLRVAATSFYSGFEEKQTSIDVLPEECLFEILRRLPSGQERSACACVSKHWLNLLSSISRSEVNESSVQDVEEGEGFLSRSLEGKKATDLRLAAIAVGTSSRGGLGKLQIRGSGFESKVTDVGLGAVAHGCPSLRIVSLWNLPAVSDLGLSEIARSCPMIEKLDLSRCPGITDSGLVAIAENCVNLSDLTIDSCSGVGNEGLRAIARRCVNLRSISIRSCPRIGDQGVAFLLAQAGSYLTKVKLQMLNVSGLSLAVIGHYGAAVTDLVLHGLQGVNEKGFWVMGNAKGLKKLKSLSVMSCRGMTDVGLEAVGNGCPDLKHVSLNKCLLVSGKGLVALAKSALSLESLKLEECHRINQFGLMGFLMNCGSKLKAFSLANCLGISDFNSESSLPSPSCSSLRSLSIRCCPGFGDASLAFLGKFCHQLQDVELCGLNGVTDAGVRELLQSNNVGLVKVNLSECINVSDNTVSAISVCHGRTLESLNLDGCKNITNASLVAVAKNCYSVNDLDISNTLVSDHGIKALASSPNHLNLQVLSIGGCSSITDKSKACIQKLGRTLLGLNIQRCGRISSSTVDTLLENLWRCDILY
notes: In the yeast two-hybrid assays the cDNA was cloned into pAS2 or pACT2 (Clontech), so the protein was a fusion with the vector's domain; also called AAR27072.1
B3: EBF1 (EIN3-binding F-box protein 1) (other)
chain: MSQIFSFAGENDFYRRGAIYPNPKDASLLLSLGSFADVYFPPSKRSRVVAPTIFSAFEKKPVSIDVLPDECLFEIFRRLSGPQERSACAFVSKQWLTLVSSIRQKEIDVPSKITEDGDDCEGCLSRSLDGKKATDVRLAAIAVGTAGRGGLGKLSIRGSNSAKVSDLGLRSIGRSCPSLGSLSLWNVSTITDNGLLEIAEGCAQLEKLELNRCSTITDKGLVAIAKSCPNLTELTLEACSRIGDEGLLAIARSCSKLKSVSIKNCPLVRDQGIASLLSNTTCSLAKLKLQMLNVTDVSLAVVGHYGLSITDLVLAGLSHVSEKGFWVMGNGVGLQKLNSLTITACQGVTDMGLESVGKGCPNMKKAIISKSPLLSDNGLVSFAKASLSLESLQLEECHRVTQFGFFGSLLNCGEKLKAFSLVNCLSIRDLTTGLPASSHCSALRSLSIRNCPGFGDANLAAIGKLCPQLEDIDLCGLKGITESGFLHLIQSSLVKINFSGCSNLTDRVISAITARNGWTLEVLNIDGCSNITDASLVSIAANCQILSDLDISKCAISDSGIQALASSDKLKLQILSVAGCSMVTDKSLPAIVGLGSTLLGLNLQQCRSISNSTVDFLVERLYKCDILS
notes: In the yeast two-hybrid assays the cDNA was cloned into pAS2 or pACT2 (Clontech), so the protein was a fusion with the vector's domain; also called FBL6; At2g25490

The target in assay [1] is T1, EIN3 full-length protein (ETHYLENE-…3 transcription factor) (Arabidopsis, UniProt O24606 1-628).
T1 construct: Full-length EIN3 in the direct yeast two-hybrid tests, cloned in pAS2 or pACT2; In the immunoblots it is the endogenous or overexpressed EIN3 from plant extracts; also called At3g20770
T1 sequence: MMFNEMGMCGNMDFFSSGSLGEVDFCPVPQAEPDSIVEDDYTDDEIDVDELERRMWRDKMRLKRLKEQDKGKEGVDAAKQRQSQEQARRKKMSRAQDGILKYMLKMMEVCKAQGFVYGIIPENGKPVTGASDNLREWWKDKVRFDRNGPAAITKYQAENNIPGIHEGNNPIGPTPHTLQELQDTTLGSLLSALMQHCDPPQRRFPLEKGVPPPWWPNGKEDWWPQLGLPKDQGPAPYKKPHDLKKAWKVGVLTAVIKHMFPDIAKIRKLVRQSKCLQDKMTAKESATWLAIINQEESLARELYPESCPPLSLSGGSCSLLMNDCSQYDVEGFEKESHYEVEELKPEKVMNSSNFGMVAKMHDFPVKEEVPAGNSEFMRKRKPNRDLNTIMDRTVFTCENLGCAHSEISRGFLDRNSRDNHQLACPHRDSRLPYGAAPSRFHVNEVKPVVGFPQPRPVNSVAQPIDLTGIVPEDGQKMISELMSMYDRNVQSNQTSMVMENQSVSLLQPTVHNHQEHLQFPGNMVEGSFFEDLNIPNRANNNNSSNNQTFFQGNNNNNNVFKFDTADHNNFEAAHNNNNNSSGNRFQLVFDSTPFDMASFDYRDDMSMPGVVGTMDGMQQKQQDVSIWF
Put plainly: yeast two-hybrid (summary in Example 8). From the text: (§1) We then directly tested the possible interaction between EIN3 full-length protein and individual F-box proteins. Using genome-wide microarray experiments, we narrowed the search for EIN3-interacting F-box proteins by first testing those genes whose RNA levels were regulated by ethylene (Alonso et al., Science 301, 653-657, 2003; H. G. and J. R. E., unpublished data). From this gene list, two closely related candidate F-box proteins were identified which were able to interact with EIN3 in yeast two-hybrid assays (FIGS. 4C and 4E). We designated these two F-box proteins as EBF1 and EBF2 (for EIN3-binding F-box protein 1 and 2). EBF1 was previously named as FBL6 with no function assigned (Xiao and Jang, 2000). These two proteins share 57% identity in amino acid sequence (FIG. 4A), and each contains a well-conserved F-box motif in the amino-terminus and 18 tandem leucine-rich repeats (LRRs) in the carboxyl terminus (FIGS. 4A and 4B). Because LRR domains in several F-box proteins contribute to the substrate binding (Gagne et al., Proc Natl Acad Sci 99, 11519-11524, 2002), we tested whether the C-terminal LRR domains in EBF1 and EBF2 were sufficient for EIN3 interaction. […]

Assay [2] addresses B1. As to the kind of experiment: yeast two-hybrid.
Text: as §1

Assay [3] has as its target B3. Put plainly: yeast two-hybrid.
Text: as §1

The target of assay [4] is T1, EIN3 full-length protein (ETHYLENE-…3 …). Put plainly: yeast two-hybrid, filter-lift beta-galactosidase.
Text: as §1

B1: the binding result in assay [1] was “binds”.

B2: ASK1, an Arabidopsis Skp1 protein (other, UniProt Q39255 1-160, looked up)
chain: MSAKKIVLKSSDGESFEVEEAVALESQTIAHMVEDDCVDNGVPLPNVTSKILAKVIEYCKRHVEAAASKAEAVEGAATSDDDLKAWDADFMKIDQATLFELILAANYLNIKNLLDLTCQTVADMIKGKTPEEIRTTFNIKNDFTPEEEEEVRRENQWAFE
notes: Yeast two-hybrid fusion in pAS2 or pACT2
Turning to B2, the binding result in assay [2] and in assay [3] was “binds” throughout.
For the molecule B3, the binding result in assay [4] is on record as “binds”.
